The results in this text go back to patent publication US6524826B1, “Polynucleotides encoding cortistatin polypeptides” (Human Genome Sciences, Inc., priority 1996, dated 2003).

In assay [1] the test system is CA1 neuron. The experiment in a line: action potential firing of a manually depolarized CA1 neuron. The class given is cell-based. The following applies: superfusion by 1 μM; CA1 neuron depolarized to about −65 mV. From the text: (§1) For example, one can measure Cortistatin activity by manually depolarizing a CA1 neuron to about −65 mV (resting potential at about −70 mV) to elicit action potential firing. […] One can measure Population Spike (PS) amplitudes in CA1 neurons in vivo, by generating stimulus response curves and relating the PS amplitude monotonically to stimulus intensity tested at three response levels: threshold, half-maximal, and maximal. […] Another assay for polypeptides having Cortistatin activity is the effect of intracerebroventricular administration to male Sprague—Dawley rats, anesthetized with halothane, of the polypeptide in question on the sleep—wake cycle of the rat. An active polypeptide would increase the period of slow wave sleep and decrease REM sleep.

For assay [2], the system named is CA1 neurons. Briefly: Population Spike (PS) amplitudes in CA1 neurons in vivo. The note with it: microiontophoretic application of 1 mg ml^−1.
Source text: as §1

B1: Human Cortistatin: Human Cortistatin polypeptide, brain neuropeptide; mature protein amino acid residues about 1 to about 86 in SEQ ID NO:2 (protein)
chain: MPLSPGLLLLLLSGATATAALPLEGGPTGRDSEHMQEAAGIRKSSLLTFLAWWFEWTSQASAGPLIGEEAREVARRQEGAPPQQSA
modifications: Human Cortistatin
B1: the action potential discharge entry in assay [1] is “abolish the action potential discharge”. Moreover, the “PS amplitudes in CA1” value in assay [2] is recorded as “significantly decrease PS amplitudes”.
